In test [1] the target is T1, Nluc-Y2R-eYFP D42A-S43A-T44A (Homo sapiens, UniProt P49146, D42A/S43A/T44A).
T1 construct: expressed in transfected cells; host or cells: membrane preparations of transiently transfected HEK293
T1 sequence (P49146 1-381 D42A/S43A/T44A): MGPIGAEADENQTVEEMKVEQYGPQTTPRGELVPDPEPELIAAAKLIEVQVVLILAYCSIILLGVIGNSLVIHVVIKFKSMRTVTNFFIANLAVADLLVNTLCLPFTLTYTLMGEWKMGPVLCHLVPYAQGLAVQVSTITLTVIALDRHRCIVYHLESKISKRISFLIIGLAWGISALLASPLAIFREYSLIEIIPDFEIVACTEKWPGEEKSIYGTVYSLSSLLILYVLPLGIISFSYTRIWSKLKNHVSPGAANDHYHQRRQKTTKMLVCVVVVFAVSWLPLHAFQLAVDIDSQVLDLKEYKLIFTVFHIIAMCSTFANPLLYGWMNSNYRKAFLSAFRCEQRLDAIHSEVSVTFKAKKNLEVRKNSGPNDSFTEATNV
The test is described as follows: NanoBRET equilibrium ligand binding. On the procedure: (§1) Briefly, for each data point, membranes containing 0.03 μg total protein were suspended in ice-cold BRET binding buffer (Hank’s balanced salt solution (HBSS) containing 20 mM HEPES (pH 7.4), 0.1% bovine serum albumin (BSA)). The assay was performed in solid black 96-WP with a total assay volume of 100 μL in technical duplicate or triplicate. […] To determine unspecific binding, 100 µM of the Y2R antagonist JNJ-31020028 (Selleck Europe) were added to each well. […] To start the dissociation measurement, the antagonist JNJ-31020028 was added to a final concentration of 50 µM (20 µL) using the built-in injector system of the plate reader and the BRET decay was measured for 20 min. Raw BRET was calculated as the ratio of fluorescence to luminescence, and the background value of the unspecific binding controls was subtracted to obtain the netBRET signal.
Background: Bioluminescence resonance energy transfer reports proximity on the nanometre scale.

Test [2] deals with T2, Nluc-Y2R-eYFP Δ2-41 (Homo sapiens, UniProt P49146).
T2 construct: expressed in transfected cells; host or cells: membrane preparations of transiently transfected HEK293
T2 sequence (P49146 with tags, fused parts or gaps): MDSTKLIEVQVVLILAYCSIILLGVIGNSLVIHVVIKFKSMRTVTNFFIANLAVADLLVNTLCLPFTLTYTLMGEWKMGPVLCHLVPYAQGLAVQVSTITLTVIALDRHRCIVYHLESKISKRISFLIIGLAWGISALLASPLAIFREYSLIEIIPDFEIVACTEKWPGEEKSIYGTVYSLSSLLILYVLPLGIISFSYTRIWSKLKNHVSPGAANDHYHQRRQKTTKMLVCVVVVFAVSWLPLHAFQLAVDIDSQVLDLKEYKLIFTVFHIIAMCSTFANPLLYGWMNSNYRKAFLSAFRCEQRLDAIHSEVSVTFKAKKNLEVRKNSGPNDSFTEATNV
Kind of test: NanoBRET equilibrium ligand binding. On the procedure: as §1

Test [3] deals with T2, Nluc-Y2R-eYFP Δ2-41. Kind of test: NanoBRET ligand dissociation. The class given is binding. The settings on record: koff. Here is the method: as §1
For test [4], the target named is T3, Nluc-Y2R-eYFP D/E35-39K (Homo sapiens, UniProt P49146, D35K/E37K/E39K).
T3 construct: expressed in transfected cells; host or cells: HEK293, transiently transfected, membrane preparations
T3 sequence (P49146 1-381 D35K/E37K/E39K): T1 sequence (P49146 1-381 D42A/S43A/T44A) with D35K, E37K, E39K, A42D, A43S, A44T
Kind of test: NanoBRET ligand dissociation. The settings on record: koff, charge reversal in the acidic patches. It counts as binding. Here is the method:
as §1

Test [5] concerns the target T4, Nluc-Y2R-eYFP E15-20K (Homo sapiens, UniProt P49146, E15K/E16K/E20K).
T4 construct: expressed in transfected cells; host or cells: membrane preparations of transiently transfected HEK293
T4 sequence (P49146 1-381 E15K/E16K/E20K): T1 sequence (P49146 1-381 D42A/S43A/T44A) with E15K, E16K, E20K, A42D, A43S, A44T
Kind of test: NanoBRET ligand dissociation. It counts as binding. The settings on record: koff, charge reversal in the acidic patches. Here is the method: as §1

Data on one substance can be found in paper PMC12449476, “Transient ligand contacts of the intrinsically disordered N-terminus of neuropeptide Y2 receptor regulate arrestin-3 recruitment” (Nature Communications, 2025).

Where a chain is given by its changes, count along the chain named.

As to “K18-Tamra-NPY: tetramethylrhodamine(Tamra)-labeled peptide (K^18-Tamra-NPY)”, the BRETmax in test [1] (HEK293 membranes, 10 min RT, mean, 95% CI 0.0040 to 0.0080) is listed as 0.0060; in test [2] (HEK293 membranes, 10 min RT, mean, 95% CI 0.5907 to 0.7133, P<0.0001 vs WT), 0.6520. For the same substance, in test [1] (NanoBRET, HEK293 membranes), the “Low-affinity state affinity reduction vs wild-type” value is reported as “about three-fold reduced”. Besides, the Fraction high affinity in test [1] (mean, 95% CI 0.0649 to 0.2365, P<0.01 vs WT) amounted to 0.1507; in test [2] (mean, 95% CI 0.0357 to 0.0467), 0.0412. Further, the “KD, high replicates (log)” value in test [1] (replicate 1) is listed as -9.81; in test [1] (replicate 2), -11.68; in test [1] (replicate 3) it was -9.11; in test [2] (replicate 1), -9.51; in test [2] (replicate 2), -9.76; in test [2] (replicate 3) it was -9.64. Besides, the “KD, low replicates (log)” value in test [1] (replicate 1) is given as -6.11; in test [1] (replicate 2) it was -6.26; in test [1] (replicate 3), -5.98; in test [2] (replicate 1) it was -6.16; in test [2] (replicate 2) it was -6.18; in test [2] (replicate 3), -6.21. The “Low-affinity binding constant reduction vs wild-type” value in test [2] (NanoBRET, HEK293 membranes) is recorded as “about two-fold reduced”. For the same substance, the “Increase of ligand dissociation vs wild-type” value in test [3], in test [4] and in test [5] was “two to three-fold” throughout.
